In the assay the test system is HAB1. Put plainly: Yeast two hybrid of pBD-PYR1 site saturation mutants with pACT-HAB1 on 10 μM ABA, β-galactosidase staining. The assay is classed as cell-based, Arabidopsis. Details: key: x: Mutations in PYR1 that disrupt ABA-induced binding to PYR1 to HAB1. As to conditions: S. cerevisiae Y190, 10 μM ABA; dead = lack of visible staining in comparison to wild type control. In short, it runs like this: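 Binding was read by β-galactosidase staining of chloroform-lysed colonies after 2 days at 30° C on SD (-Leu, -Trp) plates containing 10 μM (+)-ABA. Yeast strain Y190 carried the BD-PYR1 single-substitution mutants plus the AD-HAB1 fusion. Absence of staining versus the wild-type control defined "dead" mutants.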

Consider 31 molecules from patent US10919943B2, “Mutant proteins enabling agrochemical control of plant gene expression” (The Regents of the University of California, priority 2016, dated 2021).

Numbering of substitutions follows the chain as printed. In names and notes the source's numbering stands.

B1: G150V: PYR1 mutant (protein, UniProt O49686 1-191, looked up, variant G150V)
Abscisic acid receptor PYR1: MPSELTPEERSELKNSIAEFHTYQLDPGSCSSLHAQRIHAPPELVWSIVRRFDKPQTYKHFIKSCSVEQNFEMRVGCTRDVIVISGLPANTSTERLDILDDERRVTGFSIIGGEHRLTNYKSVTTVHRFEKENRIWTVVLESYVVDMPEVNSEDDTRMFADTVVKLNLQKLATVAEAMARNSGDGSGSQVT
For B1, the “Mutations in PYR1 that disrupt ABA-induced binding to PYR1 to HAB1” value (“Mutations” for short) is “x”.

B2: N151L: PYR1 mutant (protein, UniProt O49686 1-191, looked up, variant N151L)
Abscisic acid receptor PYR1: B1 Abscisic acid receptor PYR1 with V150G, N151L
For B2, the “Mutations” value is recorded as “x”.

B3: D155G: PYR1 mutant (protein, UniProt O49686 1-191, looked up, variant D155G)
Abscisic acid receptor PYR1: B1 Abscisic acid receptor PYR1 with V150G, D155G
On to B3, for which the “Mutations” value was “x”.

B4: D155P: PYR1 mutant (protein, UniProt O49686 1-191, looked up, variant D155P)
Abscisic acid receptor PYR1: B1 Abscisic acid receptor PYR1 with V150G, D155P
Consider B4, for which the “Mutations” value is on record as “x”.

B5: D155W: PYR1 mutant (protein, UniProt O49686 1-191, looked up, variant D155W)
Abscisic acid receptor PYR1: B1 Abscisic acid receptor PYR1 with V150G, D155W
With B5, the “Mutations” value is “x”.

B6: N151P: PYR1 mutant (protein, UniProt O49686 1-191, looked up, variant N151P)
Abscisic acid receptor PYR1: B1 Abscisic acid receptor PYR1 with V150G, N151P
On to B6, for which the “Mutations” value is recorded as “x”.

B7: N151F: PYR1 mutant (protein, UniProt O49686 1-191, looked up, variant N151F)
Abscisic acid receptor PYR1: B1 Abscisic acid receptor PYR1 with V150G, N151F
Consider B7, for which the “Mutations” value is reported as “x”.

B8: N151V: PYR1 mutant (protein, UniProt O49686 1-191, looked up, variant N151V)
Abscisic acid receptor PYR1: B1 Abscisic acid receptor PYR1 with V150G, N151V
As for B8, the “Mutations” value is listed as “x”.

B9: N151M: PYR1 mutant (protein, UniProt O49686 1-191, looked up, variant N151M)
Abscisic acid receptor PYR1: B1 Abscisic acid receptor PYR1 with V150G, N151M
With B9, the “Mutations” value is given as “x”.

B10: G150W: PYR1 mutant (protein, UniProt O49686 1-191, looked up, variant G150W)
Abscisic acid receptor PYR1: B1 Abscisic acid receptor PYR1 with V150W
Take B10: the “Mutations” value is reported as “x”.

B11: N151W: PYR1 mutant (protein, UniProt O49686 1-191, looked up, variant N151W)
Abscisic acid receptor PYR1: B1 Abscisic acid receptor PYR1 with V150G, N151W
As for B11, the “Mutations” value is recorded as “x”.

B12: D155Y: PYR1 mutant (protein, UniProt O49686 1-191, looked up, variant D155Y)
Abscisic acid receptor PYR1: B1 Abscisic acid receptor PYR1 with V150G, D155Y
B12: the “Mutations” value is on record as “x”.

B13: N151K: PYR1 mutant (protein, UniProt O49686 1-191, looked up, variant N151K)
Abscisic acid receptor PYR1: B1 Abscisic acid receptor PYR1 with V150G, N151K
Consider B13, for which the “Mutations” value is on record as “x”.

B14: N151C: PYR1 mutant (protein, UniProt O49686 1-191, looked up, variant N151C)
Abscisic acid receptor PYR1: B1 Abscisic acid receptor PYR1 with V150G, N151C
Regarding B14, the “Mutations” value was “x”.

B15: D155I: PYR1 mutant (protein, UniProt O49686 1-191, looked up, variant D155I)
Abscisic acid receptor PYR1: B1 Abscisic acid receptor PYR1 with V150G, D155I
As to B15, the “Mutations” value is “x”.

B16: N151E: PYR1 mutant (protein, UniProt O49686 1-191, looked up, variant N151E)
Abscisic acid receptor PYR1: B1 Abscisic acid receptor PYR1 with V150G, N151E
As to B16, the “Mutations” value is listed as “x”.

B17: D155M: PYR1 mutant (protein, UniProt O49686 1-191, looked up, variant D155M)
Abscisic acid receptor PYR1: B1 Abscisic acid receptor PYR1 with V150G, D155M
Consider B17, for which the “Mutations” value is “x”.

B18: D155C: PYR1 mutant (protein, UniProt O49686 1-191, looked up, variant D155C)
Abscisic acid receptor PYR1: B1 Abscisic acid receptor PYR1 with V150G, D155C
On to B18, for which the “Mutations” value was “x”.

B19: N151D: PYR1 mutant (protein, UniProt O49686 1-191, looked up, variant N151D)
Abscisic acid receptor PYR1: B1 Abscisic acid receptor PYR1 with V150G, N151D
As to B19, the “Mutations” value is on record as “x”.

B20: N151H: PYR1 mutant (protein, UniProt O49686 1-191, looked up, variant N151H)
Abscisic acid receptor PYR1: B1 Abscisic acid receptor PYR1 with V150G, N151H
For the molecule B20, the “Mutations” value was “x”.

B21: N151Q: PYR1 mutant (protein, UniProt O49686 1-191, looked up, variant N151Q)
Abscisic acid receptor PYR1: B1 Abscisic acid receptor PYR1 with V150G, N151Q
On to B21, for which the “Mutations” value is given as “x”.

B22: D155F: PYR1 mutant (protein, UniProt O49686 1-191, looked up, variant D155F)
Abscisic acid receptor PYR1: B1 Abscisic acid receptor PYR1 with V150G, D155F
B22: the “Mutations” value was “x”.

B23: N151G: PYR1 mutant (protein, UniProt O49686 1-191, looked up, variant N151G)
Abscisic acid receptor PYR1: B1 Abscisic acid receptor PYR1 with V150G, N151G
With B23, the “Mutations” value is listed as “x”.

B24: N151R: PYR1 mutant (protein, UniProt O49686 1-191, looked up, variant N151R)
Abscisic acid receptor PYR1: B1 Abscisic acid receptor PYR1 with V150G, N151R
For the molecule B24, the “Mutations” value was “x”.

B25: D155V: PYR1 mutant (protein, UniProt O49686 1-191, looked up, variant D155V)
Abscisic acid receptor PYR1: B1 Abscisic acid receptor PYR1 with V150G, D155V
Take B25: the “Mutations” value is listed as “x”.

B26: D155L: PYR1 mutant (protein, UniProt O49686 1-191, looked up, variant D155L)
Abscisic acid receptor PYR1: B1 Abscisic acid receptor PYR1 with V150G, D155L
As to B26, the “Mutations” value is “x”.

B27: D155R: PYR1 mutant (protein, UniProt O49686 1-191, looked up, variant D155R)
Abscisic acid receptor PYR1: B1 Abscisic acid receptor PYR1 with V150G, D155R
Regarding B27, the “Mutations” value is “x”.

B28: N151I: PYR1 mutant (protein, UniProt O49686 1-191, looked up, variant N151I)
Abscisic acid receptor PYR1: B1 Abscisic acid receptor PYR1 with V150G, N151I
For the molecule B28, the “Mutations” value was “x”.

B29: D155K: PYR1 mutant (protein, UniProt O49686 1-191, looked up, variant D155K)
Abscisic acid receptor PYR1: B1 Abscisic acid receptor PYR1 with V150G, D155K
With B29, the “Mutations” value was “x”.

B30: G150I: PYR1 mutant (protein, UniProt O49686 1-191, looked up, variant G150I)
Abscisic acid receptor PYR1: B1 Abscisic acid receptor PYR1 with V150I
B30: the “Mutations” value is recorded as “x”.

B31: N151Y: PYR1 mutant (protein, UniProt O49686 1-191, looked up, variant N151Y)
Abscisic acid receptor PYR1: B1 Abscisic acid receptor PYR1 with V150G, N151Y
As for B31, the “Mutations” value is recorded as “x”.
